Results taken from the supplement of paper PMC10567573.
± gives the standard deviation.

Experiment: protein stability index of a GFP-peptide fusion (GPS, HEK-293T) (PSI 1-6); higher = more stable
Details: c terminus: a fixed tail appended
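Note: 24-mer peptide tiles fused after GFP, lentivirally expressed, FACS-sorted into six equal bins by GFP/DsRed ratio, decoded by Illumina sequencing, PSI is the read-weighted mean bin number.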

Row | Sequence | protein stability index (treatment: DMSO) | protein stability index (treatment: MLN4924 1 uM, 8 h)
1 | KYNHAACFGLQPGCLLPDGSRMMA [NLN] | 2.59 ± 0.27 | 2.55 ± 0.33
2 | NKRKTYTESYIARPDGDCASSLNG [ZC2HC1A] | 4.18 ± 0.23 | 4.44 ± 0.3
3 | TKETEQLRSQLQTLKQQHQQAVEQ [CCDC89] | 4.9 ± 0.19 | 4.87 ± 0.21
4 | YQAGKPDALTKLEQGEPLWTLEDE [ZNF649] | 4.57 ± 0.17 | 4.6 ± 0.18
5 | WCRDRLLGHREPSAHPVEVFSFDL [TMEM175] | 2.39 ± 0.3 | 2.25 ± 0.39
6 | ETHLRHMKALLGSYAHSVEDTHVQ [FCHO1] | 3.49 ± 0.5 | 3.35 ± 0.29
7 | ENILMCVDDAYVRRMAAEATEWQK [SRPK2] | 3.52 ± 0.26 | 3.55 ± 0.17
8 | TSPVLPSLIQLLGRNFILFIIFGT [HACD3] | 3.11 ± 0.48 | 2.98 ± 0.4
9 | DTANEIGQVLHFENVKDVPFGFQT [SERPINB5] | 3.74 ± 0.075 | 3.99 ± 0.2
10 | QTEKLLQFQDLTGIESMDQCRHTL [FAF2] | 3.82 ± 0.21 | 3.66 ± 0.33
11 | AELQCEVAALREEQKVLSRLVESL [RASAL3] | 4.09 ± 0.23 | 3.94 ± 0.37
12 | LWGRTQEEAEELAKEMSVPFYTSR [GFOD1] | 3.4 ± 0.18 | 3.61 ± 0.32
13 | ELVSADVIDLFDEQGLSALHLAAQ [RIPK4] | 3.02 ± 0.78 | 3.56 ± 0.4
14 | MAAAQEADGARSAVVAAGGGSSGQ [CLPTM1] | 5.36 ± 0.26 | 5.29 ± 0.2
15 | ILTIICYLGLPRLEFYRYYQQLKL [SLC29A1] | 3.31 ± 0.33 | 3.08 ± 0.56
16 | FVENGHSESSGQTHLEGDTVQIIC [CFHR2] | 3.21 ± 0.38 | 3.67 ± 0.37
17 | ALPSSAPSGPPPPPPSVLGVGPVA [WASL] | 4.54 ± 0.15 | 4.82 ± 0.25
18 | PQPDPVFLEALSSRYLGDSGLDDF [SERTAD3] | 4.19 ± 0.47 | 4.08 ± 0.14
19 | FRPVSETCTDRSGISTGHWSGEVK [FUT8] | 3.79 ± 0.28 | 3.84 ± 0.26
20 | GGSCRAPSTYGGGLSVSSRFSSGG [KRT16] | 2.97 ± 0.27 | 3.02 ± 0.15
21 | VRVALDYEAGQVTLHNAQTQEPIF [TRIM15] | 2.29 ± 0.33 | 2.51 ± 0.33
22 | VVILPCQHNLCRKCASDIFQASNP [TRIM55] | 2.48 ± 0.34 | 2.38 ± 0.22
23 | EKDWGLEGYVWRGSQLEDQALRGL [ZSWIM9] | 2.97 ± 0.48 | 3.62 ± 0.58

Row | Sequence | protein stability index (treatment: DMSO) | protein stability index (treatment: MLN4924 1 uM, 8 h)
24 | MYDNELWAPASEGLKPGPEDGPGK [SERTAD1] | 4.99 ± 0.46 | 5.25 ± 0.22
25 | LMRHMATHSPQKSHQCAHCEKTFN [PLAGL1] | 3.24 ± 0.3 | 3.2 ± 0.28
26 | VLRSWYEKNKHIFPASRWEPYDPE [FAM50A] | 2.87 ± 0.078 | 3 ± 0.21
27 | GPLPVKRGPPPRSGGPPPKRSAPS [RBMX] | 4.49 ± 0.39 | 4.85 ± 0.25
28 | SVKIIFKLPNDSRVERRFHFSQSL [FAF2] | 2.72 ± 0.67 | 2.76 ± 0.55
29 | EGNSMRCGRKLAKDGEYCWRWTGF [GMCL1] | 2.49 ± 0.22 | 2.11 ± 0.14
30 | EAFAASAVGSGERRGGGPVFPAPV [ZBTB22] | 3.93 ± 0.32 | 4.03 ± 0.28
31 | EVCCTSIVYATEKKQTKVEFPEAR [KCTD13] | 3.88 ± 0.34 | 3.9 ± 0.28
32 | SDVLTISGTIMKIGIEAKNLASYD [MCOLN1] | 2.39 ± 0.24 | 2.5 ± 0.33
33 | AARPDVKCVVHIHTPAGAAVSAMK [ADD1] | 2.95 ± 0.28 | 3.11 ± 0.28
34 | VNRKSVKGNTALHDCAESGSLDIM [FEM1C] | 3.7 ± 0.28 | 3.46 ± 0.47
35 | QAELSYKKVSEGPPLRLWRSVIEV [DLC1] | 2.19 ± 0.31 | 2.49 ± 0.43
36 | TGFRTISSLEEIVEKQGDTIEYLK [TMEM192] | 3.98 ± 0.41 | 4 ± 0.2
37 | CPPGGIHQVTVNESLLAPLNVELD [KRT71] | 4.63 ± 0.29 | 4.54 ± 0.23
38 | PPPPPKEGHQEGLVELPASFRELL [SCNN1D] | 4.29 ± 0.12 | 4.29 ± 0.1
39 | DCPKIVEPHGKMFNEQTWEVSQQD [ZSCAN9] | 5.16 ± 0.089 | 5.18 ± 0.11
40 | ASYSGKAADVWSLGVALFTMLAGH [TRIB3] | 2.99 ± 0.43 | 2.75 ± 0.54
41 | MLSLKKYLTEGLLQFTILLSLIGV [NFE2L1] | 3.33 ± 0.27 | 2.82 ± 0.47
42 | YAAIVAVVAVHVVLALFVYVAWNE [VMA21] | 2.08 ± 0.31 | 2.1 ± 0.11
43 | RIKIWDVYTGKLLLNLVDHTEVVR [WSB1] | 2.61 ± 0.59 | 2.57 ± 0.34
44 | RPPAYSPAQRSHTYTHGLGLHRRP | 3.63 ± 0.28 | 3.75 ± 0.16
45 | ESPIPEDKDRRFVFSYFLATDMIS [EFHC1] | 2.33 ± 0.28 | 2.23 ± 0.29
46 | VVTSAREHIYDLRSLENYHFVDEH [CLINT1] | 2.85 ± 0.51 | 3.15 ± 0.45

Row | Sequence | protein stability index (treatment: DMSO) | protein stability index (treatment: MLN4924 1 uM, 8 h)
47 | LKGAFPARLKKVLIVGAPIWFRVP [PTPN9] | 2.96 ± 0.7 | 2.84 ± 0.5
48 | ESPSLTSTPVCSQKVVVTTPLHRD [MYBL2] | 4.83 ± 0.2 | 4.5 ± 0.11
49 | TLYTAKKYAVPALEAHCVEFLTKH [BTBD1] | 2.7 ± 0.28 | 2.48 ± 0.12
50 | SDAAFGGILERYWLSSRAAAIKVN [MYORG] | 2.19 ± 0.2 | 2.17 ± 0.21
51 | ERIEARLATLEGDDPSLRKTHSSP [PSD2] | 5.08 ± 0.37 | 5.09 ± 0.18
52 | YKRSMDPGYPKMIAHDFPGIGHKV [MMP1] | 2.55 ± 0.21 | 2.77 ± 0.094
53 | LEKEEEKDLVMYSKCQRLFRSPSM [CDC25B] | 3.69 ± 0.39 | 3.57 ± 0.18
54 | EYLENQVIKDKDDSVDAQNICHVW [RNF180] | 3.42 ± 0.26 | 3.57 ± 0.27
55 | RAGEGFIICYSITDRRSFHEVREF [RIT1] | 3.04 ± 0.81 | 2.48 ± 0.71
56 | RIPYTKSQTEAHYSCQSKEILRYM [P2RY14] | 2.42 ± 0.32 | 2.45 ± 0.49
57 | LEGAQAPLAVEEDASSSTSTSSSF [MAGEA10] | 5.66 ± 0.14 | 5.55 ± 0.2
58 | TVQGKKGVYMTDITPQGVAMRAGV [PDZK1] | 3.12 ± 0.079 | 3.32 ± 0.25
59 | EDFLLKKPIVPTDGKRVIVVFHCE [CDC25A] | 2.37 ± 0.55 | 2.25 ± 0.64
60 | EQKLRACLEGSINEHSAHCPHTPE [RPAIN] | 4.92 ± 0.28 | 4.99 ± 0.23
61 | AVCMFLASKLKETSPLTAEKLCIY [CCND2] | 2.84 ± 0.61 | 2.44 ± 0.56
62 | MSFVAGVIRRLDETVVNRIAAGEV [MLH1] | 2.85 ± 0.35 | –
63 | PSNGRIDIKQLIAKKIKLTAEAEE [SOAT1] | 3.19 ± 0.59 | 3.33 ± 0.31
64 | YPHFSHRPSTLQAASTPQAEEDWT [OAS1] | 4.52 ± 0.27 | 4.76 ± 0.23
65 | QEELQIQAAVAAGDVHTVRKMLEQ [ASB7] | 5 ± 0.39 | 4.73 ± 0.21
66 | VLMWLLTYVGALFNGLTLLLMAVV [RTN1] | 2.51 ± 0.29 | 2.42 ± 0.13
67 | PVGEPVTNVRLQPAATWNLEEKRL [FCHO1] | 4.52 ± 0.27 | 4.63 ± 0.24
68 | SDVVGRRSSLLACILLSALGYLLL [MFSD9] | 3.22 ± 0.32 | 3.19 ± 0.26
69 | EEADDTRYTQGTGGDEVDDSVSVN [ZC3H15] | 5.63 ± 0.19 | 5.62 ± 0.19

Row | Sequence | protein stability index (treatment: DMSO) | protein stability index (treatment: MLN4924 1 uM, 8 h)
70 | DNSDYDYSALSCTSDASFHPAFLP [KCNG1] | 3.59 ± 0.26 | 3.46 ± 0.32
71 | RENMSDGDTSATESGDEVPVELYT [KMT2E] | 5.32 ± 0.21 | 5.21 ± 0.22
72 | QEAMKRLRGAKAFRLPGLSRRERE [FCHO1] | 3.91 ± 0.25 | 4.13 ± 0.2
73 | DWMAAMFGGPFVESSTREVVFPYT [RHOBTB2] | 2.23 ± 0.3 | 2.04 ± 0.47
74 | ERDREREPEAASSRGSPVRVKREF [USP39] | 5.4 ± 0.26 | 5.39 ± 0.17
75 | RKHSDLEEEEERWEWSPAGLQSYQ [SERTAD3] | 4.35 ± 0.26 | 4.38 ± 0.17
76 | YHQGCLVNPTGNLPMWSNQTWNNS [NANOGP8] | 2.5 ± 0.36 | 2.57 ± 0.066
77 | GGKSGELEQEEERLSKEWEDSKRW [CHGA] | 5.3 ± 0.33 | 5.07 ± 0.32
78 | QGSLENMSKLLKRQNDILQVVSQG [CD207] | 3.39 ± 0.22 | 3.64 ± 0.22
79 | MSIHIVALGNEGDTFHQDNQPSGL [RHOBTB3] | 2.51 ± 0.25 | 2.52 ± 0.4
80 | EHLPVKPDTMEKLRTHIDAIILAL [DENND6A] | 2.64 ± 0.3 | 2.63 ± 0.51
81 | GAAAPATPTPVAAALDACSGNDPF [SNAP91] | 5.18 ± 0.34 | 5.15 ± 0.24
82 | GPSAEAYLLHPAAFHGAPSHLPTR [TBX6] | 3.31 ± 0.21 | 3.42 ± 0.16
83 | VSGINGDIRAKKIASIADVCESMK [HNF4A] | 3.52 ± 0.15 | 3.72 ± 0.31
84 | ETTERMKCLYYLYATLDLNAVKYV [PDS5B] | 2.88 ± 0.3 | 3.12 ± 0.47
85 | LAFPLKHPDSWRAYPFYWAWLPQA [PI4K2A] | 2.42 ± 0.65 | 2.48 ± 0.84
86 | EVMKCIVEVISDTLSKPSPMPVSQ [CHGA] | 2.55 ± 0.18 | 2.48 ± 0.4
87 | KHGSLNRYHNSHPLRERARKLSQG [YJU2B] | 3.73 ± 0.19 | 3.84 ± 0.12
88 | SLKEDLTQHKFICEQCGKCKCGEC [SPRY1] | 5.32 ± 0.36 | 5.22 ± 0.14
89 | LPPEKGREVAKELGLPYYETSVFD [RHOBTB1] | 3.65 ± 0.18 | 3.8 ± 0.24
90 | LLSSVHVLDLEARGYIKPHVDSIK [ALKBH7] | 2.97 ± 0.22 | 3.19 ± 0.33
